{"source": "patent US20210100839A1", "about": "(CELLECTIS, published 2021)"}
{"molecular_target": "T1, recombinant CD22 protein corresponding to the whole extracellular domain of CD22 (human; mouse, UniProt P20273 20-687)", "T1 construct": "range 20-687; also called full length recombinant CD22 protein; CD22 recombinant protein (full length)", "test": "flow cytometry, CAR T cells stained with recombinant full length CD22 protein", "method": "CAR detection at the surface of T-cells is performed using a recombinant protein consisting on the extracellular domain of the human CD22 protein (whole protein, distal portion of CD22 or proximal portion of CD22) fused together with a murine IgG1 Fc fragment. Binding of this protein to the CAR molecule is detected with a PE-conjugated secondary antibody (Jackson Immunoresearch) targeting the mouse Fc portion of the protein, and analyzed by flow cytometry.\nThen, CAR positive cells frequency (% of CAR-expressing cells over the total number of cells) was assessed by flow cytometry using a recombinant CD22 protein corresponding to the membrane proximal domain of CD22 or a recombinant CD22 protein corresponding to the whole extracellular domain of CD22 (FIG. 5)."}
{"binder": "anti-CD22 CAR8 (prot CAR8) (other, Original clone number 8; Single-chain CAR on T cells; range counted on the printed copy; also called CAR8 6) QVQLQQSGPGLVKPSQTLSLTCAISGDSVSSSSAAWNWIRQSPSRGLEWLGRTYYRSAWYNDYAVSVKSRITINPDTSKNQFSLQLNSVTPEDTAVYYCARESVLLDGMDVWGRGTTVTVSGGGGSGGGGSGGGGSAIRMTQSPSTLSASVGDRVTITCRASQSISTYLNWYQQKAGKAPRLLIHDASSLQSGVPSRFSGSGSGTDFTLTISSLQPEDFATYYCQQSYSTPLTFGGGTKVEIKTTTPAPRPPTPAPTIASQPLSLRPEACRPAAGGAVHTRGLDFACDIYIWAPLAGTCGVLLLSLVITLYCKRGRKKLLYIFKQPFMRPVQTTQEEDGCSCRFPEEEEGGCELRVKFSRSADAPAYQQGQNQLYNELNLGRREEYDVLDKRRGRDPEMGGKPRRKNPQEGLYNELQKDKMAEAYSEIGMKGERRRGKGHDGLYQGLSTATKDTYDALHMQALPPR", "binding result": "binds"}
{"binder": "anti-CD22 CAR9 (prot CAR9) (other, Original clone number 9; Single-chain CAR on T cells; range counted on the printed copy; also called CAR9 7) QVQLQQSGPGLVQPSQTLSLTCVISGDSVSSNSATWNWIRQSPSRGLEWLGRTYYRSKWYNDYAVSVKSRITINPDTSKNQFSLQLNSVTPEDTAVYYCARDGDGGSYYDYYYYGMDVWGQGTTVTVSGGGGSGGGGSGGGGSDIQLTQSPSSLSTSVGDRVTITCRASQSISTYLNWYQQKPGKAPKLLIYAASNLQSGVPSRFSGSGSGTDFTLTISSLQPEDFATYFCQQSYTTPITFGQGTRLEIKTTTPAPRPPTPAPTIASQPLSLRPEACRPAAGGAVHTRGLDFACDIYIWAPLAGTCGVLLLSLVITLYCKRGRKKLLYIFKQPFMRPVQTTQEEDGCSCRFPEEEEGGCELRVKFSRSADAPAYQQGQNQLYNELNLGRREEYDVLDKRRGRDPEMGGKPRRKNPQEGLYNELQKDKMAEAYSEIGMKGERRRGKGHDGLYQGLSTATKDTYDALHMQALPPR", "binding result": "binds"}
{"binder": "anti-CD22 CAR15 (prot CAR15) (other, Original clone number 15; Single-chain CAR on T cells; range counted on the printed copy; also called CAR15 10) QVQLVQSGAEVKKPGASVKVSCKASGYTFTSYYMHWVRQAPGQGLEWMGIINPSGGSTSYAQKFQGRVTMTRDTSTSTVYMELSSLRSEDTAVYYCAREDSGSGAFDIWGQGTLVTVSGGGGSGGGGSGGGGSEIVLTQSPLSLPVTPGEPASISCRSSRSLLSYHGYNYLDWYLQKPGQSPQLLIFVGSNRAPGVPDRFSGSGSGTDFTLNISRVEAEDVGVYYCMQSLQTPRTFGQGTKVEIKTTTPAPRPPTPAPTIASQPLSLRPEACRPAAGGAVHTRGLDFACDIYIWAPLAGTCGVLLLSLVITLYCKRGRKKLLYIFKQPFMRPVQTTQEEDGCSCRFPEEEEGGCELRVKFSRSADAPAYQQGQNQLYNELNLGRREEYDVLDKRRGRDPEMGGKPRRKNPQEGLYNELQKDKMAEAYSEIGMKGERRRGKGHDGLYQGLSTATKDTYDALHMQALPPR", "binding result": "binds"}
{"binder": "anti-CD22 CAR2 (prot CAR2) (other, Single-chain CAR on T cells; range counted on the printed copy) QVQLQQSGPGLVKPSQTLSLTCAISGDSVSSNSAAWNWIRQSPSRGLEWLGRTYYRSKWYNDYAVSVKSRITINPDTSKNQFSLQLNSVTPEDTAVYYCARASMTGGYSYGDAFDIWGQGTLVTVSGGGGSGGGGSGGGGSAIRMTQSPSSLSASVGDRVTITCRASQSISSYLNWYQQKPGKAPKLLIYAASSLQSGVPSRFSGSGSGTDFSLTISSLQPEDSATYYCQQTYSTPLTFGQGTKVEIKTTTPAPRPPTPAPTIASQPLSLRPEACRPAAGGAVHTRGLDFACDIYIWAPLAGTCGVLLLSLVITLYCKRGRKKLLYIFKQPFMRPVQTTQEEDGCSCRFPEEEEGGCELRVKFSRSADAPAYQQGQNQLYNELNLGRREEYDVLDKRRGRDPEMGGKPRRKNPQEGLYNELQKDKMAEAYSEIGMKGERRRGKGHDGLYQGLSTATKDTYDALHMQALPPR", "binding result": "binds"}
{"binder": "anti-CD22 CAR3 (prot CAR3) (other, Single-chain CAR on T cells; range counted on the printed copy) QVQLQQSGPGLVEPSQTLSLTCAISGDSVSSDSVAWNWIRQSPSRGLEWLGRTYYRSTWYNDYAGSVKSRITINPDTSKNQFSLQLTSVTPEDTAVYYCTRSRHNTFRGMDVWGQGTTVTVSGGGGSGGGGSGGGGSDIVMTQSPSSLSASVGDRVTITCRASQTISSYLNWYQQKPGKAPKLLIYDASSLQSGVPSRFSGSGSGTDFTLTINSLQPEDFATYYCQQSYTTPITFGQGTRLEIKTTTPAPRPPTPAPTIASQPLSLRPEACRPAAGGAVHTRGLDFACDIYIWAPLAGTCGVLLLSLVITLYCKRGRKKLLYIFKQPFMRPVQTTQEEDGCSCRFPEEEEGGCELRVKFSRSADAPAYQQGQNQLYNELNLGRREEYDVLDKRRGRDPEMGGKPRRKNPQEGLYNELQKDKMAEAYSEIGMKGERRRGKGHDGLYQGLSTATKDTYDALHMQALPPR", "binding result": "binds"}
{"binder": "anti-CD22 CAR7 (prot CAR7) (other, Single-chain CAR on T cells; range counted on the printed copy; also called CAR7 5) QVQLQQSGPGLVEPSQTLSLTCAISGDSVSSDSVAWNWIRQSPSRGLEWLGRTYYRSTWYNDYAGSVKSRITINPDTSKNQFSLQLNSVTPEDTAVYYCARDRNGMDVWGQGTMVTVSGGGGSGGGGSGGGGSDIVMTQSPSSLSASVGDRVTITCRASQSISSYLNWYQQKPGKAPKLLIYDASNLETGVPSRFSGSGSGTDFTFTITSLQPEDFATYYCQQSYTTPLTFGGGTKVEIKTTTPAPRPPTPAPTIASQPLSLRPEACRPAAGGAVHTRGLDFACDIYIWAPLAGTCGVLLLSLVITLYCKRGRKKLLYIFKQPFMRPVQTTQEEDGCSCRFPEEEEGGCELRVKFSRSADAPAYQQGQNQLYNELNLGRREEYDVLDKRRGRDPEMGGKPRRKNPQEGLYNELQKDKMAEAYSEIGMKGERRRGKGHDGLYQGLSTATKDTYDALHMQALPPR", "binding result": "binds"}
